# In the supplement of paper PMC10567573:
# B1: KCNA4 (parent)
# chain: YQSGGRLKRPVNVPFDIFTEEVKF
# Variants of: B1
# Assay: protein stability index of a GFP-peptide fusion (GPS, HEK-293T) (PSI 1-6); higher = more stable
# Details: c terminus: a fixed tail appended
# 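Further: lentivirally expressed fusions sorted by FACS into six bins by GFP to DsRed ratio, PSI derived from sequencing read proportions per bin multiplied by bin number.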
row,Variant,protein stability index
1,YQSGGRLKRPVNNPFDIFTEEVKF,1.2
2,YQSGGRLKRPVNVPYDIFTEEVKF,1.56
3,YQSGGRLKRPVNVPCDIFTEEVKF,2.41
4,YQSGGRLKRPVNVPIDIFTEEVKF,2.45
5,YQSGGRLKRPVNVPHDIFTEEVKF,2.47
6,YQSGGRLKRPVNVPSDIFTEEVKF,1.94
7,YQSGGRLKRPVNVPLDIFTEEVKF,2.15
8,YQSGGRLKRPVNVPDDIFTEEVKF,2.6
9,YQSGGRLKRPVNVPRDIFTEEVKF,2.83
10,YQSGGRLKRPVNVPMDIFTEEVKF,3
11,YQSGGRLKRPVNVPPDIFTEEVKF,2.01
12,YQSGGRLPRPVNVPFDIFTEEVKF,1.7
13,YQSGGRLQRPVNVPFDIFTEEVKF,2.56
14,YQSGGRLSRPVNVPFDIFTEEVKF,1.93
15,CQSGGRLKRPVNVPFDIFTEEVKF,2.81
16,QQSGGRLKRPVNVPFDIFTEEVKF,3.33
17,KQSGGRLKRPVNVPFDIFTEEVKF,2.88
18,PQSGGRLKRPVNVPFDIFTEEVKF,2.29
19,TQSGGRLKRPVNVPFDIFTEEVKF,2.88
20,YQSGGRLKRPVNVPFDITTEEVKF,2.26
21,YQSGGRLKRPVNVPFDIKTEEVKF,1.84
22,YQSGGRLKRPVNVPFDINTEEVKF,2.1
23,YQSGGRLKRPVNVPFDILTEEVKF,2.5
24,YQSGGRLKRPVNVPFDIGTEEVKF,2.29

row,Variant,protein stability index
1,YQSGGRLKRPVNVPFDIHTEEVKF,2.15
2,YQSGGRLKRPVNVPFDICTEEVKF,1.57
3,YQSGGRLKRNVNVPFDIFTEEVKF,1.94
4,YQSGGRLKRWVNVPFDIFTEEVKF,1.14
5,YQSGGRLKRYVNVPFDIFTEEVKF,1.93
6,YQSGGRLKRSVNVPFDIFTEEVKF,1.97
7,YQSGGRLKRFVNVPFDIFTEEVKF,2.76
8,YQSGGRLKRGVNVPFDIFTEEVKF,1.53
9,YQSGGRLKRPVNVPFDIFYEEVKF,2.16
10,YQSGGRLKRPVNVPFDIFSEEVKF,2.09
11,YQSGGRLKRPVNVPFDIFWEEVKF,1.41
12,YQSGGRLKRPVNVPFDIFPEEVKF,1.53
13,YQSGGRLKRPVNVPFDIFVEEVKF,1.96
14,YQSGGRLKRPVNVPFDIFFEEVKF,2.1
15,YQSGGRLKRPVNVPFDIFGEEVKF,1.94
16,YQSGGRLKRPVNVPFDIFDEEVKF,2.38
17,YQSGGRLKRPVNVPFDIFCEEVKF,1.46
18,YQSGGRLKRPVNVPFDIFKEEVKF,2.66
19,YQSGGRLKRPVNVPFDIFIEEVKF,1.72
20,YQSGGRPKRPVNVPFDIFTEEVKF,1.99
21,YQSGGRHKRPVNVPFDIFTEEVKF,1.8
22,YQSGGRTKRPVNVPFDIFTEEVKF,2.15
23,YQSGGRGKRPVNVPFDIFTEEVKF,1.84
24,YQSGGRMKRPVNVPFDIFTEEVKF,1.56

row,Variant,protein stability index
1,YQSGGRFKRPVNVPFDIFTEEVKF,2.4
2,YQSGGRWKRPVNVPFDIFTEEVKF,1.77
3,YQSGGRSKRPVNVPFDIFTEEVKF,2.29
4,YQSGGRVKRPVNVPFDIFTEEVKF,2.28
5,YQSGGRAKRPVNVPFDIFTEEVKF,1.71
6,YQSGGRLKRPVNVPFDIFTEEVKI,1.71
7,YQSGGRLKRPVNVPFDIFTEEVKW,1.92
8,YQSGGRLKRPVNVPFDIFTEEVKS,2.79
9,YQSGGRLKRPVNVPFDIFTEEVKQ,2.92
10,YQSGGRLKRPVNVPFDIFTEEVKY,2.89
11,YQSGGRLKRPVNVPFDIFTEEVKT,2.18
12,YQSGGRLKRPVNVPFDIFTEEVKL,2.05
13,YQSGGRLKRPVNVPFDWFTEEVKF,2.99
14,YQSGGRLKRPVNVPFDAFTEEVKF,1.64
15,YQSGGRLKRPVNVPFDYFTEEVKF,1.99
16,YQSGGRLKRPVNVPFDFFTEEVKF,2.25
17,YQSGGRLKRPVNVPFDTFTEEVKF,2.89
18,YQSGGRLKRPVNVPFDKFTEEVKF,2.04
19,YQSGGRLKRPVNVPFDLFTEEVKF,2.36
20,YQSGGRLKRPVNVPFDDFTEEVKF,2.83
21,YQSGGRLKRPVNVPFSIFTEEVKF,1.21
22,YQSGGRLKRPVNVPFVIFTEEVKF,1.55
23,YQSGGRLKRPVNVPFAIFTEEVKF,1.83
24,YQSGGRLKRPVNVPFNIFTEEVKF,2.03

row,Variant,protein stability index
1,YQSGGRLKRPVNVPFMIFTEEVKF,1.54
2,YQSGGRLKRPVNVPFWIFTEEVKF,2.98
3,YQSGGRLKRPVNVPFPIFTEEVKF,1.52
4,YQSGGRLKRPVNVPFKIFTEEVKF,1.57
5,YQSGGRLKRPVNVPFRIFTEEVKF,2.48
6,YQSGGRLKRPVNVPFLIFTEEVKF,1.85
7,YQSGGRLKRPVNVPFEIFTEEVKF,2.08
8,YQSGGRLKRPVEVPFDIFTEEVKF,1.22
9,YQSGGRLKRPVDVPFDIFTEEVKF,2.38
10,YQSGGRLKRPVLVPFDIFTEEVKF,2.43
11,YQSGGRLKRPVMVPFDIFTEEVKF,2.13
12,YQSGGRLKRPVSVPFDIFTEEVKF,2.96
13,YQSGGRLKRPVHVPFDIFTEEVKF,1.91
14,YQSGGRLKRPVYVPFDIFTEEVKF,1.55
15,YQSGGRLKRPVNVEFDIFTEEVKF,1.42
16,YQSGGRLKRPVNVAFDIFTEEVKF,1.37
17,YQSGGRLKRPVNVGFDIFTEEVKF,2.98
18,YQSGGRLKRPVNVCFDIFTEEVKF,2.19
19,YQSGGRLKRPVNVNFDIFTEEVKF,2.07
20,YQSGGRLKRPVNVRFDIFTEEVKF,2.19
21,YQSGGRLKRPVNVIFDIFTEEVKF,3
22,YQSGGRLKRPVNVYFDIFTEEVKF,2.7
